Results: paper PMC12467718

Target: mouse laminin (mouse)
Assay: ELISA; ELISA-type: mouse laminin coated on a black polystyrene plate, 50 µg/mL biotinylated-Gal-8, 37 °C 1 h, Streptavidin-Alexa 488, fluorescence (RFU)

relative fluorescence units (RFU): 4000 RFU
Substance: biotinylated human Galectin-8 (natural protein)
